Measured values published in the RNAGym collection of RNA variant scans (doi:10.1021/acssynbio.7b00057).

B1: Pistol ribozyme (parent)
chain: GGGUCGUUGUUCCAUAAUCGCGUGGAUAUGGCACGCAAGUUUCUACCGGGCACCGUAAAUGUCCGACUGGAGCCGUUCGGGCGGCUAUAAACAGACCUCAGGCCCGAAGCGUGGCGGCACCUGCCGCCGGUGGUAAAAAAGAUCGGAAGAGCACACGUCU

Variants of: B1
Assay: aptazyme ON/OFF ratio, guanine; higher = stronger switching; co-transcriptional cleavage with and without guanine

Row | Variant | aptazyme ON/OFF ratio
1 | G9U U10C U11C C12G | 1.12
2 | G9U U10C U11C C12U | 1.31
3 | G9U U10C U11C C12A | 1.08
4 | G9C U11C | 1.18
5 | G9C U11A | 1.78
6 | G9C U11G | 2.2
7 | G9C U10G U11A C12A C13G | 1.06
8 | G9C U10G U11A C12A C13A | 1.23
9 | G9C U10G U11A C12A C13U | 1.52
10 | G9U U10C U11A C12A C13A | 1.53
11 | G9U U10C U11A C12A C13G | 1.24
12 | G9U U10C U11A C12A C13U | 1.57
13 | G9C U11G C13A | 1.23
14 | G9C U11G C13G | 1.05
15 | G9C U11G C13U | 1.31
16 | G9U U10C U11G C12A C13G | 1.22
17 | G9U U10C U11G C12A C13U | 1.08
18 | G9U U10C U11G C12A C13A | 1.34
19 | G9U U10A C13U | 1.54
20 | G9U U10A C13A | 1.27
21 | G9U U10A C13G | 1.27
22 | G9U C13A | 1.34
23 | G9U C13G | 1.09
24 | G9U C13U | 2.07

Row | Variant | aptazyme ON/OFF ratio
25 | G9C U10C U11G C12G C13A | 1.04
26 | G9C U10C U11G C12G C13G | 1.13
27 | G9C U10C U11G C12G C13U | 1.11
28 | G9U U10A U11A C12A C13A | 1.37
29 | G9U U10A U11A C12A C13G | 1.29
30 | G9U U10A U11A C12A C13U | 1.41
31 | G9U U10G C12G C13U | 1.23
32 | G9U U10G C12G C13G | 1.41
33 | G9U U10G C12G C13A | 1.44
34 | G9C U10G U11C C12U C13U | 1.24
35 | G9C U10G U11C C12U C13A | 1.2
36 | G9C U10G U11C C12U C13G | 1.09
37 | G9U U10G C12U | 1.62
38 | G9U U10G C12G | 1.64
39 | G9U U10G C12A | 1.47
40 | G9C U10G U11G C12U C13A | 1.09
41 | G9C U10G U11G C12U C13G | 1.08
42 | G9C U10G U11G C12U C13U | 1.05
43 | G9U U10A U11C | 1.33
44 | G9U U10A U11G | 2.39
45 | G9U U10A U11A | 2.34
46 | G9C U11G C12A C13A | 1.14
47 | G9C U11G C12A C13U | 1.13
48 | G9C U11G C12A C13G | 1.03

Row | Variant | aptazyme ON/OFF ratio
49 | G9C U11A C12A | 1.34
50 | G9C U11A C12G | 1.47
51 | G9C U11A C12U | 1.53
52 | G9U U10G U11A C12G | 2.23
53 | G9U U10G U11A C12A | 1.63
54 | G9U U10G U11A C12U | 1.3
55 | G9U U10A U11A C12U C13A | 1.09
56 | G9U U10A U11A C12U C13U | 1.08
57 | G9U U10A U11A C12U C13G | 1.7
58 | G9C U10G | 2.17
59 | G9U C12U | 2.37
60 | G9U C12A | 1.08
61 | G9U C12G | 1.75
62 | G9U U10G | 4.12
63 | G9U U10C | 4.48
64 | G9U U10A | 3.18
65 | G9U U10G U11A C12G C13A | 1.18
66 | G9U U10G U11A C12G C13U | 1.07
67 | G9U U10G U11A C12G C13G | 1.08
68 | G9C U10G U11C C12A | 1.37
69 | G9C U10G U11C C12U | 1.08
70 | G9C U10G U11C C12G | 1.17
71 | G9U U10C C12G C13G | 1.32
72 | G9U U10C C12G C13U | 1.18

Row | Variant | aptazyme ON/OFF ratio
73 | G9U U10C C12G C13A | 1.35
74 | G9U U10G U11C C12G C13A | 1.27
75 | G9U U10G U11C C12G C13U | 1.27
76 | G9U U10G U11C C12G C13G | 1.06
77 | G9C U11G C12U C13U | 1.41
78 | G9C U11G C12U C13G | 1.25
79 | G9C U11G C12U C13A | 1.3
80 | G9C U10G U11G C12G C13G | 1.13
81 | G9C U10G U11G C12G C13U | 1.1
82 | G9C U10G U11G C12G C13A | 1.1
83 | G9U U10G U11C | 1.28
84 | G9U U10G U11A | 1.2
85 | G9C U11A C12G C13G | 1.24
86 | G9C U11A C12G C13A | 1.2
87 | G9C U11A C12G C13U | 1.22
88 | G9U U10A C12U C13A | 0.769
89 | G9U U10A C12U C13G | 1.1
90 | G9U U10A C12U C13U | 1.06
91 | G9C U10G C12U C13G | 1.15
92 | G9C U10G C12U C13U | 1.22
93 | G9C U10G C12U C13A | 1.15
94 | G9U U10G U11A C12A C13G | 1.7
95 | G9U U10G U11A C12A C13U | 1.37
96 | G9U U10G U11A C12A C13A | 1.56

Row | Variant | aptazyme ON/OFF ratio
97 | G9U U10G U11C C12U C13U | 1.18
98 | G9U U10G U11C C12U C13A | 1.14
99 | G9U U10G U11C C12U C13G | 1.17
100 | G9U U10G U11C C13A | 1.26
101 | G9U C12G C13U | 1.43
102 | G9U C12G C13G | 1.27
103 | G9U C12G C13A | 1.52
104 | G9U U10A U11C C12U C13G | 1.39
105 | G9U U10A U11C C12U C13A | 1.11
106 | G9U U10A U11C C12U C13U | 1.5
107 | G9U U10C U11C C12A C13A | 1.15
108 | G9U U10C U11C C12A C13U | 1.2
109 | G9U U10C U11C C12A C13G | 1.27
110 | G9C U10G U11A C12G C13A | 1.11
111 | G9C U10G U11A C12G C13G | 1.24
112 | G9C U10G U11A C12G C13U | 1.07
113 | G9U U10A C12A C13A | 1.22
114 | G9U U10A C12A C13U | 1.09
115 | G9U U10A C12A C13G | 0.84
116 | G9C U10G C12G C13G | 1.14
117 | G9C U10G C12G C13U | 1.05
118 | G9C U10G C12G C13A | 1.22
119 | G9C U10C U11G C13U | 1.08
120 | G9C U10C U11G C13A | 1.06

Row | Variant | aptazyme ON/OFF ratio
121 | G9C U10C U11G C13G | 1.08
122 | G9U U10C C12G | 2.12
123 | G9U U10C C12U | 1.71
124 | G9U U10C C12A | 1.77
125 | G9C U10G U11G C12A | 1.18
126 | G9C U10G U11G C12G | 1.16
127 | G9C U10G U11G C12U | 1.13
128 | G9U U10C U11G C12G C13A | 1.17
129 | G9U U10C U11G C12G C13U | 1.12
130 | G9U U10C U11G C12G C13G | 1.24
131 | G9C U10C U11C | 0.976
132 | G9C U10C U11G | 1.41
133 | G9C U11C C13U | 1.04
134 | G9C U11C C13A | 1.06
135 | G9C U11C C13G | 1.03
136 | G9U U10A U11A C13G | 1.17
137 | G9U U10A U11A C13A | 1.38
138 | G9U U10A U11A C13U | 1.25
139 | G9C U10G U11G C13G | 1.12
140 | G9C U10G U11G C13U | 1.13
141 | G9C U10G U11G C13A | 1.09
142 | G9C U10G U11A C13G | 1.09
143 | G9C U10G U11A C13A | 1.08
144 | G9C U10G U11A C13U | 1.05

Row | Variant | aptazyme ON/OFF ratio
145 | G9U U10G C12A C13A | 0.843
146 | G9U U10G C12A C13U | 1.45
147 | G9U U10G C12A C13G | 1.17
148 | G9U U10C U11G C13G | 1.18
149 | G9U U10C U11G C13A | 1.36
150 | G9U U10C U11G C13U | 1.52
151 | G9C U10G U11G | 1.09
152 | G9C U10G U11A | 1.08
153 | G9C U10G U11C | 1.06
154 | G9U U10C U11C C12U C13U | 1.18
155 | G9U U10C U11C C12U C13A | 1.11
156 | G9U U10C U11C C12U C13G | 1.09
157 | G9U U10C U11A C13U | 1.48
158 | G9U U10C U11A C13G | 1.09
159 | G9U U10C U11A C13A | 1.31
160 | G9U U10A U11G C12A C13G | 1.37
161 | G9U U10A U11G C12A C13A | 1.14
162 | G9U U10A U11G C12A C13U | 1.25
163 | G9C U10C U11C C12G | 1.04
164 | G9C U10C U11C C12A | 1.04
165 | G9C U10C U11C C12U | 1.03
166 | G9U U10C U11A C12G C13G | 1.43
167 | G9U U10C U11A C12G C13U | 1.27
